Substrate in the series: Nc1ncnc2c1ncn2[C@@H]1O[C@H](COP(=O)(O)OP(=O)(O)OP(=O)(O)O)[C@@H](O)[C@H]1O
In words: purified protein. It counts as biochemical, Saccharolobus solfataricus. The note with it: with ssDNA; labelled compound.

B1: SsoRadA (Sulfolobus solfataricus RadA) (Saccharolobus solfataricus P2) (protein)
chain: MSNEVEQKKNIKTINDLPGISQTVINKLIEAGYSSLETLAVASPQDLSVAAGIPLSTAQKIIKEARDALDIRFKTALEVKKERMNVKKISTGSQALDGLLAGGIETRTMTEFFGEFGSGKTQLCHQLSVNVQLPPEKGGLSGKAVYIDTEGTFRWERIENMAKALGLDIDNVMNNIYYIRAINTDHQIAIVDDLQELVSKDPSIKLIVVDSVTSHFRAEYPGRENLAVRQQKLNKHLHQLTRLAEVYDIAVIITNQVMARPDMFYGDPTVAVGGHTLYHVPGIRIQLKKSRGNRRIARVVDAPHLPEGEVVFALTEEGIRDAEE
notes: purified recombinant protein; homo-oligomeric nucleoprotein filament on ssDNA; F73, R72, R83 given
What is called Km is the concentration of substrate that gives half-maximal velocity. By kcat is commonly meant the number of substrate molecules converted per active site and unit of time at saturation. On to B1, for which the Km is 398 ± 52 µM and the kcat worked out at 0.000617 ± 5e-05 s⁻¹.

B2: SsoRadA (Sulfolobus solfataricus RadA) (Saccharolobus solfataricus P2; R72P) (protein)
chain: MSNEVEQKKNIKTINDLPGISQTVINKLIEAGYSSLETLAVASPQDLSVAAGIPLSTAQKIIKEARDALDIPFKTALEVKKERMNVKKISTGSQALDGLLAGGIETRTMTEFFGEFGSGKTQLCHQLSVNVQLPPEKGGLSGKAVYIDTEGTFRWERIENMAKALGLDIDNVMNNIYYIRAINTDHQIAIVDDLQELVSKDPSIKLIVVDSVTSHFRAEYPGRENLAVRQQKLNKHLHQLTRLAEVYDIAVIITNQVMARPDMFYGDPTVAVGGHTLYHVPGIRIQLKKSRGNRRIARVVDAPHLPEGEVVFALTEEGIRDAEE
notes: as for B1
In the case of B2, the Km was 143 ± 10 µM and the kcat worked out at 0.000267 ± 1.7e-05 s⁻¹.

B3: SsoRadA (Sulfolobus solfataricus RadA) (Saccharolobus solfataricus P2; R72G) (protein)
chain: MSNEVEQKKNIKTINDLPGISQTVINKLIEAGYSSLETLAVASPQDLSVAAGIPLSTAQKIIKEARDALDIGFKTALEVKKERMNVKKISTGSQALDGLLAGGIETRTMTEFFGEFGSGKTQLCHQLSVNVQLPPEKGGLSGKAVYIDTEGTFRWERIENMAKALGLDIDNVMNNIYYIRAINTDHQIAIVDDLQELVSKDPSIKLIVVDSVTSHFRAEYPGRENLAVRQQKLNKHLHQLTRLAEVYDIAVIITNQVMARPDMFYGDPTVAVGGHTLYHVPGIRIQLKKSRGNRRIARVVDAPHLPEGEVVFALTEEGIRDAEE
notes: as for B1
Take B3: the Km was 176 ± 23 µM and the kcat came out at 0.000267 ± 1.7e-05 s⁻¹.

B4: SsoRadA (Sulfolobus solfataricus RadA) (Saccharolobus solfataricus P2; R72A) (protein)
chain: MSNEVEQKKNIKTINDLPGISQTVINKLIEAGYSSLETLAVASPQDLSVAAGIPLSTAQKIIKEARDALDIAFKTALEVKKERMNVKKISTGSQALDGLLAGGIETRTMTEFFGEFGSGKTQLCHQLSVNVQLPPEKGGLSGKAVYIDTEGTFRWERIENMAKALGLDIDNVMNNIYYIRAINTDHQIAIVDDLQELVSKDPSIKLIVVDSVTSHFRAEYPGRENLAVRQQKLNKHLHQLTRLAEVYDIAVIITNQVMARPDMFYGDPTVAVGGHTLYHVPGIRIQLKKSRGNRRIARVVDAPHLPEGEVVFALTEEGIRDAEE
notes: as for B1
Take B4: the Km came out at 37 ± 11 µM and the kcat is 0.000183 ± 3.3e-05 s⁻¹.
